Experimental findings from paper PMC12345223 are described below.

Series [1] addresses T1, ChCpc1 (Cochliobolus heterostrophus C4 (Tox1+, …, UniProt M2T2C6 1-465)).
T1 sequence: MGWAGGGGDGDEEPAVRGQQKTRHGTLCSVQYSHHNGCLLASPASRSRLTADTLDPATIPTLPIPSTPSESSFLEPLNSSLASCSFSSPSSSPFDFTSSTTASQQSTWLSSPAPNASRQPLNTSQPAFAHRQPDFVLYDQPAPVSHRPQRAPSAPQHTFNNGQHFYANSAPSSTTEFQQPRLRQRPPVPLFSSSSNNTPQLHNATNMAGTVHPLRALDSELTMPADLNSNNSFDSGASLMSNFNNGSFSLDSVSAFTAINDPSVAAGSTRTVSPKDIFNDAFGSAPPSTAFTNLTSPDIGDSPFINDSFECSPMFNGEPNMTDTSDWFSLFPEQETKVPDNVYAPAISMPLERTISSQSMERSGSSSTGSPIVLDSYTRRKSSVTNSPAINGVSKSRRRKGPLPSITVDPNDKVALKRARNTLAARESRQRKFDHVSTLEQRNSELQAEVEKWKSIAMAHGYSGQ
Briefly: EMSA; Light Shift Chemiluminescent EMSA Kit (Beyotime), 20 min at 25°C; 6.5% polyacrylamide gel, 0.5x TBE; binding buffer, salt and pH not stated. Particulars: protein: recombinant; tags: His (pET-32a); chain copies: 2; label: biotin (on forward strand); blunt. (Mobility shift assays separate free from complexed probe on a gel.)

In series [2] the target is T1, ChCpc1. Briefly: EMSA; 100x unlabeled competitor prevents binding; Light Shift Chemiluminescent EMSA Kit (Beyotime), 20 min at 25°C; 6.5% polyacrylamide gel, 0.5x TBE; binding buffer, salt and pH not stated. The note with it: protein: recombinant, tags: His (pET-32a), chain copies: 2, label: biotin (on forward strand).
Series [3] deals with T2, ChAtf1 (Cochliobolus heterostrophus C4 (Tox1+, …, UniProt M2TIN4 1-567)).
T2 sequence: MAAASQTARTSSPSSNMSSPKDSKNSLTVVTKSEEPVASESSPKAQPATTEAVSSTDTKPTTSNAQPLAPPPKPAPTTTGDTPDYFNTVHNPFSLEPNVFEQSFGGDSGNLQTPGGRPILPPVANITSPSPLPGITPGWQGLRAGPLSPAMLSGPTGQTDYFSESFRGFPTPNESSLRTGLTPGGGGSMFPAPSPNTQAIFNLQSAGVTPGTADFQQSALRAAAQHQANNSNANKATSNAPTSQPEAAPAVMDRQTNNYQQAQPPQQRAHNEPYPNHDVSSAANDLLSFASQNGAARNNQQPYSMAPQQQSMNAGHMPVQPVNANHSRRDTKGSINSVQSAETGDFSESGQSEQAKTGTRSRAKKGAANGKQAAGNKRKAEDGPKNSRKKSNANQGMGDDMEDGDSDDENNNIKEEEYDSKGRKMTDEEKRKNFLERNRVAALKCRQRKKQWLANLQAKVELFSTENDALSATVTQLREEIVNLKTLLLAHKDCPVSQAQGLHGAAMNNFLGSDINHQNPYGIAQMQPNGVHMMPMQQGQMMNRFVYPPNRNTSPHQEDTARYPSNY
The experiment in a line: EMSA; ChAtf1 alone; Light Shift Chemiluminescent EMSA Kit (Beyotime), 20 min at 25°C; 6.5% polyacrylamide gel, 0.5x TBE; binding buffer, salt and pH not stated. The note with it: protein: recombinant; tags: His (pET32a); chain copies: 2; label: biotin (on forward strand); blunt.

The target in series [4] is T1, ChCpc1. Briefly: EMSA; strongest of the four ATG probes; Light Shift Chemiluminescent EMSA Kit (Beyotime), 20 min at 25°C; 6.5% polyacrylamide gel, 0.5x TBE; binding buffer, salt and pH not stated. The note with it: protein: recombinant; tags: His (pET-32a); chain copies: 2; label: biotin (on forward strand); blunt.

B1: ChATG7 promoter probe (dsDNA)
DNA 1: TCCCAAATGTCGGTCGTGACCCATCGTTCCCTCCATCTCA
DNA 2: TGAGATGGAGGGAACGATGGGTCACGACCGACATTTGGGA
For the molecule B1, in series [1], the binding result is recorded as “binds”.

B2: ChARG4 promoter probe (dsDNA)
DNA 1: CATTGGCGTTTGGGACTGAATTACAATGAGTAATGAAATAACTCACACCACAAAGCAGTA
DNA 2: TACTGCTTTGTGGTGTGAGTTATTTCATTACTCATTGTAATTCAGTCCCAAACGCCAATG
With B2, the binding result in series [2] (blunt) is “binds”; in series [3], “no binding”.

B3: ChATG5 promoter probe (dsDNA)
DNA 1: CAGCTATGTTGCGTTAGTAAGTCACCCATCTACGCTGTCGC
DNA 2: GCGACAGCGTAGATGGGTGACTTACTAACGCAACATAGCTG
Take B3: in series [1], the binding result is listed as “binds”.

B4: ChATG8 promoter probe (dsDNA)
DNA 1: GGAGAGCGTGAAGGAGAGAGACGGGATGAGTCAAAGTACCCAGGTAGCCAGGTCATGGGA
DNA 2: TCCCATGACCTGGCTACCTGGGTACTTTGACTCATCCCGTCTCTCTCCTTCACGCTCTCC
As for B4, the binding result in series [1] was “binds”; in series [3] it was “no binding”.

B5: ChARG1 promoter probe (dsDNA)
DNA 1: AAGACAGTGGTGGAGATCAAGTTGGATGAGTAACTTGGCGCTGCACTCGATTCGCGTGTT
DNA 2: CCAACTTGATCTCCACCACTGTCTT
Take B5: in series [2] (printed reverse oligo (25 nt) pairs only with nt 1-25 of the 60-nt forward strand, possibly printed incomplete), the binding result is “binds”.

B6: ChATG9 promoter probe (dsDNA)
DNA 1: GCGGCGCGTCACCTGCATGAGTCCCATGTCGATGAGGCGCT
DNA 2: AGCGCCTCATCGACATGGGACTCATGCAGGTGACGCGCCGC
Consider B6, for which, in series [4], the binding result is “binds”.
